Measured values: patent US5777073
Like-named read-outs stand apart in the source and are kept apart here.

What was measured:
[1] = target: CRF receptors on rat anterior pituitary cells (rat)
[2] = target: CRF receptors on rat anterior pituitary cells (rat); remark: listed apart in the source
[3] = target: CRF receptors on rat anterior pituitary cells (rat); remark: listed apart in the source

(cyclo 28-31) D-Phe^12, Nle^21,38, Glu^28, Lys^31 !-r/hCRF(12-41) (peptide)
in vitro biopotency: inhibition of ACTH secretion (times the Standard) [1]: 3.12

(cyclo 29-32) D-Phe^12, Nle^21,38, Glu^29, Lys^32 -r/hCRF(12-41) (peptide)
in vitro biopotency: inhibition of ACTH secretion (times the Standard) [2]: 3.38

(cyclo 28-32) D-Phe^12, Nle^21,38, Glu^28, D-Ala^31, Lys^32 !-r/hCRF(12-41) (peptide)
in vitro biopotency: inhibition of ACTH secretion (times the Standard) [3]: 4.91
